test: yeast display, Sf9 membrane polyspecificity reagent, FACS + sequencing; frameworks hold sequencing errors
Summary of the method: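 Synthetic nanobody libraries on Saccharomyces cerevisiae BJ5465 were galactose-induced for 36–48 hours, stained 1 hour at 4 °C with 10% biotinylated, detergent-solubilized Sf9 membrane reagent and enriched on streptavidin microbeads. FACS then separated cells into low and high (top ~1%) gates by anti-HA (expression) and streptavidin (reagent binding) fluorescence. Genes were colony-PCR amplified, MiSeq 2 × 250 sequenced and CDR-length filtered. A clone's polyreactivity label is that of its gate of origin.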

Sequence	polyreactivity (PSR sort gate)
QVQLVESGGGLVQAGGSLRLSCAASGRIFTYYAMVWYRQAPGKERELVAAITGSGTSTYYADSVKGRFTISRDNAMNTVFLLMNSLKPEDTAVYYCAARNSFSRYYYWGQGTQVTVSS	high polyreactivity
QVQLVESGGGLVQAGGSLRLSCAASGSTFRWYTMGWYRQATGKERDLVAAINQSGSRTYYADSVKGRFTISRDNAKNTVYLQMNSLKPEDTAVYYCNAKSYKSPHTYYYWGQGTQVTVSS	high polyreactivity
QVQLVESGGGLVQAGGSLRLSCAASGRTFYGYAMGWYRQAPGKERELVATITRRGGSTYYADSVKGRFTISRDNAKNTVYLQMNSLKPEDTAVYYCARQGDQYYRDGDDYWGQGTQVTVSS	high polyreactivity
QVQLVESGGGLVQAGGSLRLSCAASGNIFYLYAMGWYRQAPGKEREFSTSYADSVKGRFTISRDNAKNTVYLQMNSLKPEDTAVYYCAAYKSRGPYYYLFDYWGQGTQVTVSS	low polyreactivity
QVQLVESGGGLDQAGGSLRLSWAASGFTFVPYAMGWYRQAPGKERNLVARITGGGGNTYYADSVKGRFTISRDNAKNTVYLQMISLKPEDTAVYYCAADYTNWKTCSNEMYYWGQGTQVTVSS	low polyreactivity
QVQLVESGGGLVQAGGSLRLICAASGSTFERYAMGWYRQAPGKERELVAAIDSRSGSTSYADSVKGRFTISRDNAKNTVYLQMNSLKPEDTAVYYCAKDYYRPWYDRPLGYDYWGQGTQVTVSS	low polyreactivity
QVQLVESGGGLVQAGGSLRLSCAASGSTFIRNAMGWYRQAPGKERELVAAISGSGVSTRYADSVKGRFTISRDNAKNTVYLQMNSLKPEDTAVYYCAKRKQYPYTMGYWGQGTQVTVSS	high polyreactivity
QVQLVESGGGLVQAGRSLRLSCAASGITFGRNTMGWYRQAPGKERELVAAIDSGGNTYADSVKGRFTISRDNAKNTVYLQMNSLKPEDTAVYYCAVDGGEFSSYGYWGQGTQVSVSS	low polyreactivity
KVQLVESGGGLVQAGGSLRLSCAASGRIFVGYAMGWYRQAPGKERELVAAINRSGSSTYYADSVKGRFTISRYNAKNTVYLQMNSLKPEDTAVYYCNARSGKRYGPRYDYWGQGTQVNVSS	high polyreactivity
QVQLVESGGGLVQAGGTLRLSCAASGSTFVYNAMGWYRQAPGKERDLVATITGGGSTYYADSVKGRFTISRDNAKNTVYLQMNSLKPEDTAVYYCSKRRDSYDVEYDYWGQGTQVTVSS	low polyreactivity
QVQLVESGGGLVQAGGSLRLSCAASASNSNGMTWYGIDRRLGRKELVAGIRSAGSTNYADSVKGRFTISRDNAKNTFYLQMNSLKPEDTAGYYCAKDYRWVWRKYGYWGQGTQVTVSS	low polyreactivity
QVQLVESGGGLVQAGGSLRLSCAASGSTLAFYAMGWYRQAPGKERELVAAIRRGGSTYYADSVKGRFTISRDNAKNTVYLQMNSLKPEDTAVYYCAARYRRVSYYYWGQGTQVTVSS	high polyreactivity
QVQLVESVRGSVQAGGSLRLSCAASGSTFYENAMGWYRPAPGKVRELVAAITWSGGRTYYADSVKGRFTISRDNAKNTVYLQMYSLKAEDTAVYYCNARARSRKFYYWGQGTQVTVSS	high polyreactivity
QVQLVESGGGLVQAGGSLRLSCAASGSTFHRYTMGWYRQAPGKERELVAAISSGVNTDYADSVKGRFTISRDNAKNTVYLQMNSLKPEDTEVYYCNTSFGSPQVVRYEYWGQGTQVTVSS	low polyreactivity
QVQLVESGGGLVQAGGSLRLSCAASGRTFDGYAMGWYRQAPGKERELVAAIDGGGSTNYADSVKGRFTISRDNAKNTVYLQMNSLKPEDTAVYYCAADRGSGPGYDYWGQGTQVTVSS	low polyreactivity
QVQLVESGGGLVQAGGSLRLSCAASGLIFPYYAMGWYREAPGKARELVASIRYSAGNTYYADSVKGRFTISRDNAKNTVYLQMNSLKPEDTAVYYCWYTQNTLGNYWGQGTQVTVSS	low polyreactivity
QVQLVESGGGLVQAGGSLRLSCAASGRIFGYYAMGWYRQAPGKERELVAGINSAGSTNYADSVKGRFTISRDNAKNTVYLQMNSLKPEDTAVYYCAARIRLSLRTGYDYWGQGTQVTVSS	high polyreactivity
QVQLVETGAGLVQAGGSLRLSCAASGILLFNAMGWNTQPPGKERELVAAINSGGSTNYADSVKGRFTISRDNAKNTVYFQMNSLIPEDTAVYFCAKDTPFTLRVWAEGGMDYWGHGTQVTVSS	low polyreactivity
QVQLVESGGGLVQAGGSLRLSFAASGSNFAVKAMGLNTPAPGKERELVATITRRDGSTYYADSVKGRFTISRDNAKYTVYLQLNSLKPEDTAVYYCNARLKRTYDYWGQGTQVTVSS	high polyreactivity
QVQLVESGGGRDQAGGSLRLSCAASGLTSYSNAMGWFRQAPGKERELVAAISRSGGSTYYADSVKGRFTISRDTAKNSVYLQMISLKAEDSAFYYCAASIWVYLLGGGYSDYDYWGQGTQETVSS	low polyreactivity
QVQLVESGGGLVQAGGSLRLSCAASGITIYGYAMGWYRQAPGKERELVAAISFRSGSTYYADSVKGRFTISRDNAKNTVYLQMNSLKPEDTAVYYCATDRYYRDDYWGQGTQVTVSS	low polyreactivity

Sequence	polyreactivity (PSR sort gate)
QVQLVESGGGLVQAGGSLRLSCAASGSIFYRYTMGWYRQAPGKERELVAAISSRGGSTYYADSVKGRFTISRDNAKNTVYLQMNSLKPEDTAVYYCAARFSYWAPSKGYGYWGQGTQVTVSS	high polyreactivity
QDQLVESGGGLVQAGGSLRLSCAASGIIIWRYAMGRYRQAPRKERELVAGITSRGGSTYYADSVKGRFTISRDNAKNTVYLQMNSLKPEDTAVYYCNADWYGLLWWGVDYWGQGTQVTVSS	high polyreactivity
QVQLQEGRGLVQAGGSLRLSSAASGYISSRPAMGWYRQAPCKERSFVATIADGTSTYYADSVKGRFTISRDNAINTVYLQMNSLKPEDTAVYYCAAAYNTEFYLSYWGQGTQVTVSC	high polyreactivity
QVQLVESGGGLVQAGGSLRLSCAASGITFKYYTMGWYRQAPGKERELVAAISRSGGSTYYADSVKGRFTISRDNAKNTVYLLMNSLKPEDTAVYYCAGERGAYRGVTFTYGYWGQGTQVTVSS	high polyreactivity
QVQLVESGGGLVQAGGSLRLSCAASGSTFQYYAMGWYREAPGKERELVAAITHSGTRTYYADSVKGRYTISRDNAKNTVYLQMNTLKPEDTAGYYCAARGYGKYDYWGQGTQVTVSS	high polyreactivity
QVQLVESGGGLVQAGGSLRLSCAASGRIFFSYAMGWYRQAPGKERELVAAISRSGGRTYYADSVKGRFTISRDNAKNTVYLQMNSLKPEDTAVYYCAASSISSLYYDYWGQGTQVTVSS	high polyreactivity
QVQLVESGGGLVQAGGSLRLSCAASGRTFGSYAMGWYRQAPGKERELVAAISVSGDSTFYADSVKGRFTISRDNAKNTVYLQMNSLKQEDTAVYYCAARDYVEFWGQGTQVTVSS	low polyreactivity
QVQLVESRGGLVQAGGSLRLSFAASGSTFIKNAMGWYRQAPGKEWELVAAITSGGSRSYADSVKGRFTISRDNAKNTVYLQMNSLKPEDTAVYYCATDHDIGYNFYRYDYWGQGTQVTVSS	low polyreactivity
QVQLVESGGGLVQAGGSLRLSCAASGSTFYWYTMGWYRQAPGKEREMVATITSVGRTNYADSVKGRFTISRDNAKNTVYLQMNSLKPEDTAVYYCAASKARWPRGGSKYYYWGQGTQVSVSS	high polyreactivity
QVQLVESGGGLVQAGGSLRLSCAASFYVYAMGWYRQAPGKERELVAAITYSGGGTYYADSVKGRFTISRDNAKNTVYLQMNSLKPEDTAVYYCAADDYFYDYDYWGQGTQVTVSS	low polyreactivity
HVQLVESGGGLVQAGGSLRLSCAASVITFVPYAMGWYRQATGKERELVAAISWSGGSTYYADSVKGRFTISRDNAKNTVYLQMNSLKPEDTAVYYCAAQHDVRYDYWGQGTQVTVSS	low polyreactivity
QVQLVESGGGLVQAGGSLRLSCAASGIISGDYAMGWYRQAPGKERELVARITSGDSTNYADSVKGRFTISRDNAKNTVYLQMNSLKPEDTAVYYCAADRVWAYWTYGYWGQGTQVTVSS	low polyreactivity
QVQLVESGGGLVQAGGSLRLSCAASGFIFSRYAMGWYRQAPGKERELVAAISIGGSTYYADSVKGRFTISRDNAKNTVYVQMNSLKPEDTAVYYCPVDYRHSSSWNAGPWEMYYWGQGTQVTVSS	low polyreactivity
QVQLVESGGGLVQAGGSLRLSCAASGRILGDYAMGWYRQAPGTEREFVAAIDYNGGSTNYADSVMGRFTISRDNAKNTVYFQMNSLKPEDTAVYYCAKTDGFYRGYGYWGQGTQVTVSS	low polyreactivity
QVQHVESGLGLVQAGCSLRLSCAASGITFYPYTMGWYRQAPGKERELVAAIDYNGDSTYYADSVKGRFTISRDNAKNTVYLQFNSLKPEDTAVYYCAADVWTLDPDEYDYWGQGTQVTVSS	low polyreactivity
QVQLVESGGGLVQAGGSLRLSCAASGRIFNGNAMVWYRQAPGKERELVASINVRGGRTYYADSVKGRFTISRDNAKNTVYLQMNSLKPEDTAVYYWYADYAWYQRKSTVDYDYWGQVTQVTVSS	low polyreactivity
QVQLVESGGGLVQAGGSLRLSCAASGLTFYQNAMGWYRQAPGKERELVAAISSSGGRTYYADSVKGRFTISRDNAKNTVYLQMNSLKPEDTAVYYCAAYRRYRNWFNYWGQGTQVTVSS	high polyreactivity
QVQLVESGGGLVQAGGRLRLTCAASASIFHYNSMGWYRQATGKQRELVAAITSGGSTYADSVKGRFTISRDNAKNTVYLQMNSLKPEDTAVYYCNADSVGPRGDLGYWGQGTQVTVSS	low polyreactivity
QVQLVESGGGLVQAGGRLRLSCAASGIVFKRYAKGWYRQAPGKEREFVATISYTGGRTYYADSVKGRFTISRDTAKNTVYLQMNSLKPEDTAVYYCATLYRSSKHQPLDYWGQGTQVTVSS	high polyreactivity
QVQLVESGGGLVKAGGSLRLSCAASGYTFGKYAMGWYRQAPGKERELVAAISWSGGSTYYADSVKGRFRISRDNAKNTVYLQMNSLKPEDTAVYYCNKGYFGRYGYWGQGTQVTVSS	high polyreactivity
